This assay has as its target HACE1 (UniProt Q8IYU2). Nature of the assay: co-IP of differently tagged HACE1. The conditions noted are these: reference: HACE1 WT with PAK1(K141A); sites S385.

Sequence of HACE1 (Q8IYU2 whole entry, stated change not applied): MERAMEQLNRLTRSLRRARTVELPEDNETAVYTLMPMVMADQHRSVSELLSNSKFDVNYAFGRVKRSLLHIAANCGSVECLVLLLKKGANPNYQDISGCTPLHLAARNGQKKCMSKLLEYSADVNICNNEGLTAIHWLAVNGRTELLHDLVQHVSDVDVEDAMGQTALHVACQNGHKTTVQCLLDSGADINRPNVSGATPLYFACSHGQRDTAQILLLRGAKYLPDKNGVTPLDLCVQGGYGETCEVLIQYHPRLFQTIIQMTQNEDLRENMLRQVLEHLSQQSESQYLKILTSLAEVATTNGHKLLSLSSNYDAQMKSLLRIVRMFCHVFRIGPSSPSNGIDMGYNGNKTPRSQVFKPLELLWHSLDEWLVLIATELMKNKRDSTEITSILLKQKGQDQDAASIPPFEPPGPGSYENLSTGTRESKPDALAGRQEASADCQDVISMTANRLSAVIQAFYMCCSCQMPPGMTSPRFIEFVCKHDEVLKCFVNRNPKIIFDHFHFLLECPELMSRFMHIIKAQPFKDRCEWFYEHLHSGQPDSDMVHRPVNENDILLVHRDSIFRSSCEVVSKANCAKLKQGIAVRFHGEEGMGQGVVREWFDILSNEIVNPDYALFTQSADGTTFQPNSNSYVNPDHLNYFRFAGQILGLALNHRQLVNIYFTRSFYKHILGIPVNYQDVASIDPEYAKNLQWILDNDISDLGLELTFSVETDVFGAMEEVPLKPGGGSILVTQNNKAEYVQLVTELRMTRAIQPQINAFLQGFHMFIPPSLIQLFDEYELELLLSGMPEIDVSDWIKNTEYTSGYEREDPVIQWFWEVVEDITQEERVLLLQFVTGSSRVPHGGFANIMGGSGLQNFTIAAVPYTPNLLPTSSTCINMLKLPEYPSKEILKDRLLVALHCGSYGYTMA

Turning to “HACE1 (from UniProt Q8IYU2) HACE1 S385A with PAK1(K141A)”, the “binding against the reference” value is “weaker”.
